This passage reports Kd results from publication PMC9226498, “Structural basis for interaction between CLAMP and MSL2 proteins involved in the specific recruitment of the dosage compensation complex in Drosophila” (Nucleic Acids Research, 2022).

The target of this assay is T1, CLAMP^40–153 (Drosophila melanogaster, UniProt Q9V9N4 40-153).
T1 construct: Tags and their cleavage are told only in the Supplementary Information; source: E. coli BL21 (DE3), purified (IMAC, anion-exchange chromatography)
T1 sequence (looked up): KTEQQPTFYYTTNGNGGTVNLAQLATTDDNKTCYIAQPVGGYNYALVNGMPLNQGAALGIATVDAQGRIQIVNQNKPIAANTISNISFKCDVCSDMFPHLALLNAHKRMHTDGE
In words: NMR titration; stable isotope-labeled MSL2 618–655 titrated with unlabeled CLAMP 40–153 (or CLAMP 41–153 L139A/K146E); chemical shift perturbation, fast exchange; 25°C. As to conditions: both partners purified.

B1: MSL2^618–655 (domain or fragment, Drosophila melanogaster, UniProt P50534 618-655, looked up)
chain: ISLVPLNNLQQSQHPLVLVQNEKGEYQGFNIFQGSKPL
notes: Unlabelled or 13C,15N-labelled for NMR; Tags and their cleavage are told only in the Supplementary Information; also called MSL2 peptide; source: E. coli BL21 (DE3), purified (IMAC, anion-exchange chromatography)
Consider B1, for which the equilibrium dissociation constant (Kd) worked out at 200 ± 100 µM.
